Experimental data from the supplement of paper PMC10065799, “High-throughput profiling of sequence recognition by tyrosine kinases and SH2 domains using bacterial peptide display” (eLife, 2023).

What was measured:
SHP2-C SH2 = assay: SH2 binding enrichment of the phosphorylated peptide, bacterial display (enrichment ratio); higher = better substrate or ligand; peptides without Tyr show the background
Grb2 SH2 = Grb2 SH2 (UniProt P62993); assay: as above
c-Src SH2 = assay: as above
Hck = Hck (UniProt P08631); assay: phosphorylation enrichment, bacterial display (enrichment ratio); higher = better substrate or ligand; peptides without Tyr show the background
Sequence of Hck (P08631 whole entry, looked up): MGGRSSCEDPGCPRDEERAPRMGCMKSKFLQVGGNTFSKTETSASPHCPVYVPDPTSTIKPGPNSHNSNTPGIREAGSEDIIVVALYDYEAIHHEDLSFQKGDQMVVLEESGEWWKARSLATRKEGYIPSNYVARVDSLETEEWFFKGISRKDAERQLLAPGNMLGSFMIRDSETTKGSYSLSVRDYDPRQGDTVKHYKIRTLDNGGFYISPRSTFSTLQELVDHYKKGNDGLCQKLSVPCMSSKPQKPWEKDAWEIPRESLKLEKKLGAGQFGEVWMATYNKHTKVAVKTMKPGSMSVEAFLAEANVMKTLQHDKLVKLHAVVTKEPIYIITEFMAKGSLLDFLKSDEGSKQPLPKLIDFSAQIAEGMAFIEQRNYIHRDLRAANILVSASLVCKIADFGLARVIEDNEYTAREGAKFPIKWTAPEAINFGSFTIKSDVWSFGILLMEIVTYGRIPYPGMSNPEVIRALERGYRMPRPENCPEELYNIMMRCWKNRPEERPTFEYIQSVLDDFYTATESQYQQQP

Fer (mouse) = assay: as above
MERTK = MERTK (UniProt Q12866); assay: as above
FGFR3 = FGFR3 (UniProt P22607); assay: as above
Sequence of FGFR3 (P22607 whole entry, looked up): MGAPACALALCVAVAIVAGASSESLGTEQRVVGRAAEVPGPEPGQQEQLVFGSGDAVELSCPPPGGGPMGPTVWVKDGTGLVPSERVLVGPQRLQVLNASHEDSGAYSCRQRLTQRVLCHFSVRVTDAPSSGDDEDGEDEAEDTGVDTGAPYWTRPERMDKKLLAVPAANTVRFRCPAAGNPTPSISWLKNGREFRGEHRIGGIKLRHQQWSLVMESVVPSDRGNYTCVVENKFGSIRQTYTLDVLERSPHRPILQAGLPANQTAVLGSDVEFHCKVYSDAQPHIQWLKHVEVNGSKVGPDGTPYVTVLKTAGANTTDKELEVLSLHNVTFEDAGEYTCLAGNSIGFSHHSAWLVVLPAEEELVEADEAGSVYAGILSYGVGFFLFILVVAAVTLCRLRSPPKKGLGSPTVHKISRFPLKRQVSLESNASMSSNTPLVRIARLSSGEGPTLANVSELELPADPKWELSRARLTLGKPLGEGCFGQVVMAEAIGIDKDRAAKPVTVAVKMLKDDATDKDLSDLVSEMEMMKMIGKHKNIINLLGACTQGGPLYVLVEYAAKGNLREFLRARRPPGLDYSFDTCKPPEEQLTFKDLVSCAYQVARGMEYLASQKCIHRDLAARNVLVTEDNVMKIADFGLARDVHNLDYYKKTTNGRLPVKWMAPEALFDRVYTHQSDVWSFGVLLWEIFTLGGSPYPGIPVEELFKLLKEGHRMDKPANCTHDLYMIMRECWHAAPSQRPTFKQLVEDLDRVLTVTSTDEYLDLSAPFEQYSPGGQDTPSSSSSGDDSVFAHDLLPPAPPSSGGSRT

c-Abl (mouse) = assay: as above
EPHB2 = EPHB2 (UniProt P29323); assay: as above
Sequence of EPHB2 (P29323 whole entry, looked up): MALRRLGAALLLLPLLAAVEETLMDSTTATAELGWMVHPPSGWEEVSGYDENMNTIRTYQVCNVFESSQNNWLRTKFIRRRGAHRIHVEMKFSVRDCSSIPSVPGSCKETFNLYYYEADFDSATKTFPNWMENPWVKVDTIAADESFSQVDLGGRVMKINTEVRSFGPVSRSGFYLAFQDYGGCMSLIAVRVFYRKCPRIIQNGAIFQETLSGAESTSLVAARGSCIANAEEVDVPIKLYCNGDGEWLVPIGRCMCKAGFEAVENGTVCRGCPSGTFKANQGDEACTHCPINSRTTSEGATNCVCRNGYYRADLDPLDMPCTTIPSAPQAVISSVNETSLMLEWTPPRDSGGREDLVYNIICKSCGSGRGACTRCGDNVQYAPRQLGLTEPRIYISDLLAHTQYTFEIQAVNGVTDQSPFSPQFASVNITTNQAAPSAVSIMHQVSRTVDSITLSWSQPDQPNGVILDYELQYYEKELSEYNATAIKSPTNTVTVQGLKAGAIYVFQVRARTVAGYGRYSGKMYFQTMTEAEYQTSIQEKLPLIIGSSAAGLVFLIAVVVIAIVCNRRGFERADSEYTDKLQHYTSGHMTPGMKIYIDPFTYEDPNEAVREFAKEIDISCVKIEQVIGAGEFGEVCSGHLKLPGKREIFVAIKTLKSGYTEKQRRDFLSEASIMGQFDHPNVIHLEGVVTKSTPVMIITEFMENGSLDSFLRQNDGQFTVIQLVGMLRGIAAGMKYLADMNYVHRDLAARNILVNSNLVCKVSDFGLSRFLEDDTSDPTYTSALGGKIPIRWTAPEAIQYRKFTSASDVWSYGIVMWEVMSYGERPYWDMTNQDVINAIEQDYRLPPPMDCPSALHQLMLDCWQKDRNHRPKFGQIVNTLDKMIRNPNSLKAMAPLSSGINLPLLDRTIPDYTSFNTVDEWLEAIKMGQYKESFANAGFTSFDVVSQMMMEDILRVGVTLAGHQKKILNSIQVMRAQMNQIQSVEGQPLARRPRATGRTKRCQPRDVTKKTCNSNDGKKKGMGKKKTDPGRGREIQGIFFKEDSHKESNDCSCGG

AncSZ = assay: as above
c-Src = assay: as above
Jak2 = Jak2 (UniProt O60674); assay: as above
EPHB1 = EPHB1 (UniProt P54762); assay: as above
Sequence of EPHB1 (P54762 whole entry, looked up): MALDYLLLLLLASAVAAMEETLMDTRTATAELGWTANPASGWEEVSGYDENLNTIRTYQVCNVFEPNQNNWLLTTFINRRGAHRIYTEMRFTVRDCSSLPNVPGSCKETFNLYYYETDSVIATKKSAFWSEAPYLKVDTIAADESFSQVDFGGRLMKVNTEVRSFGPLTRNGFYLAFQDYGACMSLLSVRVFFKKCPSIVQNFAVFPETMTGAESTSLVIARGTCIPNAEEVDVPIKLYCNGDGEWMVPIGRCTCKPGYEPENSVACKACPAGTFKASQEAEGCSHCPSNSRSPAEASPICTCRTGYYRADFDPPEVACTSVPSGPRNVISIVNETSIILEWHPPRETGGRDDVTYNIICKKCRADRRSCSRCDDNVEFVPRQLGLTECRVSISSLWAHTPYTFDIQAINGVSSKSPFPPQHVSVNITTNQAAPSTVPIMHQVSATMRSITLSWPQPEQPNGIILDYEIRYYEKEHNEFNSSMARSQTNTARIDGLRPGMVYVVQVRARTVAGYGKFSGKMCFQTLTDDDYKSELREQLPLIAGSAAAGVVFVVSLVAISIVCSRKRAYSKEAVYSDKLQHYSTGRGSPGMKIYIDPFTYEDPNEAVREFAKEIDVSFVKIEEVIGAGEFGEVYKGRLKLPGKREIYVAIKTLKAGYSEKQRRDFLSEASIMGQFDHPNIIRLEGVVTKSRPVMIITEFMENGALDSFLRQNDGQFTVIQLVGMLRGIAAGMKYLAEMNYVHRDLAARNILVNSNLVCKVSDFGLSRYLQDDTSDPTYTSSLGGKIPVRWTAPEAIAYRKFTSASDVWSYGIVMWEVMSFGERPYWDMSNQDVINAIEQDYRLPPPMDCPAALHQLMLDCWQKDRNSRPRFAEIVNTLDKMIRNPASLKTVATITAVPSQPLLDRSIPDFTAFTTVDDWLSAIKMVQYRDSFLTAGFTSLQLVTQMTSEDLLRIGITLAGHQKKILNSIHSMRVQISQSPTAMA

FGFR1 = FGFR1 (UniProt P11362); assay: as above
Fyn = Fyn (UniProt P06241); assay: as above
Sequence of Fyn (P06241 whole entry, looked up): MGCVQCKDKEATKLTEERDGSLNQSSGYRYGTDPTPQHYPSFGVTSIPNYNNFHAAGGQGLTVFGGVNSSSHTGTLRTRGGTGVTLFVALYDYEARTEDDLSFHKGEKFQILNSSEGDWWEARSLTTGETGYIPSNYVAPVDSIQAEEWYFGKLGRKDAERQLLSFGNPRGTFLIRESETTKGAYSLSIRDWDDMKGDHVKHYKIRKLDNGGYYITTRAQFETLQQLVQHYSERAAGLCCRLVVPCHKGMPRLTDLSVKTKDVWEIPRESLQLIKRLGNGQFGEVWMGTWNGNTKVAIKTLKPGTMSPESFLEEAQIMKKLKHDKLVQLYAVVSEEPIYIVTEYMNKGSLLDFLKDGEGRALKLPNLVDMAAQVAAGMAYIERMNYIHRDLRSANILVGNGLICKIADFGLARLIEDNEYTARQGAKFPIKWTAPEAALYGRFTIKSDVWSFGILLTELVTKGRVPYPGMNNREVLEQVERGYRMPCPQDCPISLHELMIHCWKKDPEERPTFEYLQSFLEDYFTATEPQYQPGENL

Fes = Fes (UniProt P07332); assay: as above
Sequence of Fes (P07332 whole entry, looked up, the tested form may be a part): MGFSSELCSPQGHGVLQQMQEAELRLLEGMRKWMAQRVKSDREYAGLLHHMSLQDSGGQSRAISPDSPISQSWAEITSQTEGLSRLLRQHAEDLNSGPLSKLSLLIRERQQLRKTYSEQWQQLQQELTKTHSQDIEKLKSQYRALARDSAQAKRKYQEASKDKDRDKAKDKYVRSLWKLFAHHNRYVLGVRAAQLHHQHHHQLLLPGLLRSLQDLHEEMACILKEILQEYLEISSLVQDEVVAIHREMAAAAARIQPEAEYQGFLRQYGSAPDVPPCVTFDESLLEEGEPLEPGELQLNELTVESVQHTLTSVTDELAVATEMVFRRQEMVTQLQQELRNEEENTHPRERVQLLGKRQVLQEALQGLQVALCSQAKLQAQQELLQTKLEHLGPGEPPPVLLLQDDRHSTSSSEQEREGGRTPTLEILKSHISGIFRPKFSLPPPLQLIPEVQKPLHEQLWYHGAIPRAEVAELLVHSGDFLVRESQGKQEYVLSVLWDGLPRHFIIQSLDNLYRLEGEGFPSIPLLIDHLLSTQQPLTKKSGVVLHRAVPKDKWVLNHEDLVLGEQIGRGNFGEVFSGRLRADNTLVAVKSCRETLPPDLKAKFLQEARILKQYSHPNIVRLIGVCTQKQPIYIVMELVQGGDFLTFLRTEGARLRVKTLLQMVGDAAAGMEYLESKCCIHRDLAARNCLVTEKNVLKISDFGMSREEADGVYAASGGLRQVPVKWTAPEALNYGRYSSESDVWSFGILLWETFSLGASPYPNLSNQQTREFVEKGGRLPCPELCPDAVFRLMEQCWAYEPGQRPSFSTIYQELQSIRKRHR
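Wherever SH2 binding enrichment of the phosphorylated peptide, bacterial display is given: peptide library displayed on the E. coli surface as eCPX fusions, selected cells deep-sequenced, score is each peptide's frequency after selection divided by its frequency in the input.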
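Wherever phosphorylation enrichment, bacterial display is given: 11-residue human phosphosite peptides and single-mutation variants displayed on the E. coli surface, counted by deep sequencing, each peptide's frequency after selection divided by its frequency in the unselected input library; frequency after pTyr selection over input frequency; kinase dosed for 20-30% of maximal phosphorylation in three min.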

| Sequence | SH2 binding enrichment (SHP2-C SH2) | SH2 binding enrichment (Grb2 SH2) | SH2 binding enrichment (c-Src SH2) | phosphorylation enrichment (Hck) | phosphorylation enrichment (Fer (mouse)) | phosphorylation enrichment (MERTK) | phosphorylation enrichment (FGFR3) | phosphorylation enrichment (c-Abl (mouse)) | phosphorylation enrichment (EPHB2) | phosphorylation enrichment (AncSZ) | phosphorylation enrichment (c-Src) | phosphorylation enrichment (Jak2) | phosphorylation enrichment (EPHB1) | phosphorylation enrichment (FGFR1) | phosphorylation enrichment (Fyn) | phosphorylation enrichment (Fes) |
| --- | --- | --- | --- | --- | --- | --- | --- | --- | --- | --- | --- | --- | --- | --- | --- | --- |
| DHAGEYGAEAL [HBA1_Y25_A20D] | 1.11 | 0.825 | 0.506 | 0.495 | 0.403 | 0.343 | 0.621 | 0.546 | 0.569 | 0.86 | 0.405 | 0.675 | 0.426 | 0.509 | 0.427 | 0.892 |
| RQNQEYEILLD [KRT39_Y379] | 1.57 | 1.19 | 1.21 | 0.705 | 0.595 | 0.63 | 0.678 | 1.04 | 1.21 | 1.38 | 0.733 | 1.67 | 1.35 | 0.622 | 0.634 | 1.6 |
| KRNSLYSFSDH [CCDC82_Y331_Q327R] | 0.846 | 0.89 | 0.548 | 0.964 | 0.829 | 4.12 | 0.471 | 0.569 | 0.379 | 0.531 | 1.33 | 0.416 | 0.458 | 0.411 | 1.54 | 0.55 |
| EWLRRYLKNGK [HLA-C_Y195_E197K] | 0.409 | 0.656 | 0.436 | 0.522 | 0.471 | 0.581 | 0.516 | 0.546 | 0.578 | 0.68 | 0.504 | 0.679 | 0.373 | 0.507 | 0.439 | 0.636 |
| NCLREYVAGRF [CRB1_Y711] | 0.684 | 0.915 | 0.531 | 0.411 | 0.417 | 0.461 | 0.51 | 0.651 | 0.554 | 0.702 | 0.555 | 0.91 | 0.469 | 0.53 | 0.487 | 0.891 |
| AHAGEYGVEAL [HBA1_Y25_A27V] | 0.79 | 0.872 | 0.493 | 0.547 | 0.448 | 0.422 | 0.678 | 0.595 | 0.631 | 0.83 | 0.402 | 0.793 | 0.492 | 0.499 | 0.525 | 0.9 |
| VSLLPYFPAIM [IPO4_Y518_A513V] | 0.848 | 0.902 | 0.602 | 0.541 | 0.508 | 0.369 | 0.873 | 0.754 | 0.657 | 1.12 | 0.443 | 2.06 | 0.646 | 0.719 | 0.541 | 1.32 |
| GREAEYSEKHG [EPHB4_Y574_D576E] | 0.476 | 0.742 | 0.442 | 0.444 | 0.398 | 0.368 | 0.544 | 0.631 | 0.487 | 0.681 | 0.396 | 0.59 | 0.514 | 0.418 | 0.354 | 0.697 |
| MPLTEYLKRIK [CNGB3_Y200] | 0.75 | 1.01 | 0.489 | 0.365 | 0.345 | 0.379 | 0.462 | 0.525 | 0.365 | 0.621 | 0.325 | 0.613 | 0.266 | 0.381 | 0.34 | 0.616 |
| KGNMFYENSFA [EGFR_Y113_R108K_YF] | 1 | 19.5 | 2.98 | 0.449 | 1.8 | 0.484 | 0.535 | 0.645 | 0.463 | 0.76 | 0.45 | 0.751 | 0.503 | 0.332 | 0.412 | 0.705 |
| VHLYAYDWISI [BEST1_Y227_G222V] | 1.42 | 1.48 | 1.18 | 1.83 | 13 | 8.36 | 4.71 | 0.865 | 5.88 | 2.32 | 1.44 | 1.33 | 7.2 | 5.73 | 1.18 | 3.05 |
| RWHEGYRQTPK [CD44_Y412] | 1.73 | 1.47 | 0.898 | 0.429 | 0.367 | 0.356 | 0.595 | 0.418 | 0.589 | 0.66 | 0.361 | 0.607 | 0.407 | 0.405 | 0.418 | 0.678 |
| TGVWDYIHVVD [GALE_Y241_R239W] | 0.552 | 0.746 | 0.383 | 0.566 | 0.493 | 0.433 | 0.916 | 0.966 | 0.588 | 1.43 | 0.471 | 1.39 | 0.756 | 0.684 | 0.47 | 1.43 |
| VGRVGYVSGWG [HP_Y280] | 0.854 | 0.809 | 0.606 | 0.415 | 0.395 | 0.406 | 0.56 | 0.807 | 0.514 | 0.781 | 0.507 | 0.821 | 0.4 | 0.427 | 0.456 | 0.792 |
| PQGVGYPPQPQ [EP300_Y2219_Q2223P] | 0.716 | 0.998 | 0.666 | 0.571 | 0.815 | 0.74 | 0.569 | 0.931 | 0.53 | 0.972 | 0.802 | 0.926 | 0.503 | 0.695 | 0.564 | 0.904 |
| DSGRDYVSQFE [APOA1_Y53] | 0.631 | 0.875 | 0.487 | 0.529 | 0.478 | 0.409 | 0.673 | 0.601 | 0.492 | 0.914 | 0.403 | 0.665 | 0.685 | 0.462 | 0.489 | 0.922 |
| PFSNPYENSLI [EPOR_Y489_YF] | 0.501 | 15.5 | 4.88 | 0.848 | 2.23 | 0.675 | 1.02 | 1.18 | 0.929 | 1.92 | 1.01 | 3.41 | 0.92 | 0.964 | 1.04 | 1.48 |

Continued, in another order:

| SH2 binding enrichment (SHP2-C SH2) | SH2 binding enrichment (Grb2 SH2) | SH2 binding enrichment (c-Src SH2) | Sequence | phosphorylation enrichment (Hck) | phosphorylation enrichment (Fer (mouse)) | phosphorylation enrichment (MERTK) | phosphorylation enrichment (FGFR3) | phosphorylation enrichment (c-Abl (mouse)) | phosphorylation enrichment (EPHB2) | phosphorylation enrichment (AncSZ) | phosphorylation enrichment (c-Src) | phosphorylation enrichment (Jak2) | phosphorylation enrichment (EPHB1) | phosphorylation enrichment (FGFR1) | phosphorylation enrichment (Fyn) | phosphorylation enrichment (Fes) |
| --- | --- | --- | --- | --- | --- | --- | --- | --- | --- | --- | --- | --- | --- | --- | --- | --- |
| 0.75 | 0.992 | 0.513 | FFRKFCNKSED [RYR1_Y4864_Y4864C] | 0.603 | 0.417 | 0.518 | 0.6 | 0.677 | 0.381 | 0.981 | 0.442 | 0.779 | 0.515 | 0.49 | 0.589 | 1.04 |
| 0.517 | 0.733 | 0.832 | QPDLLYDHIQP [TRRAP_Y862_F860L] | 15.1 | 25 | 14.4 | 1.5 | 3.03 | 18.1 | 3.04 | 10.3 | 1.27 | 15.2 | 1.02 | 13.5 | 2.01 |
| 0.889 | 1.22 | 0.837 | CTTIHCNFMCN [TP53_Y234_Y234C_YF] | 0.446 | 0.454 | 0.441 | 0.574 | 0.629 | 0.546 | 0.782 | 0.441 | 0.862 | 0.67 | 0.45 | 0.419 | 0.869 |
| 0.817 | 1.01 | 0.487 | LFMGDYVGRGF [PPP2CA_Y86_D88G_YF] | 1.53 | 0.412 | 0.456 | 0.739 | 1.1 | 1.48 | 1.38 | 2.31 | 3.61 | 2.4 | 0.919 | 1.5 | 1.04 |
| 0.69 | 0.868 | 0.582 | HYEFKYVINAI [MAOA_Y268_C266F] | 0.489 | 0.74 | 0.572 | 0.964 | 1.28 | 0.782 | 1.75 | 0.536 | 1.55 | 1.05 | 0.471 | 0.481 | 1.72 |
| 0.609 | 0.69 | 0.469 | FGGLRCGFGVL [KRTAP20-2_Y13_Y13C_YF] | 0.403 | 0.46 | 0.34 | 0.686 | 0.673 | 0.537 | 0.91 | 0.37 | 0.901 | 0.49 | 0.45 | 0.349 | 1.14 |
| 1.56 | 0.706 | 0.503 | HNLFSYPTKFE [MYO3A_Y1396_H1400Y_YF] | 0.684 | 0.562 | 0.569 | 0.752 | 0.881 | 0.507 | 0.869 | 0.703 | 1.44 | 0.474 | 0.671 | 0.565 | 1.29 |
| 0.562 | 0.626 | 0.523 | FSNKLYFQLEQ [PDPR_Y109_YF] | 0.694 | 0.661 | 1.64 | 2.7 | 0.796 | 0.664 | 1.35 | 0.621 | 1.49 | 0.849 | 3.05 | 0.636 | 1.19 |
| 0.759 | 0.811 | 0.449 | MSSHHCDFKKF [ZNF445_Y428_Y428C_YF] | 0.452 | 0.43 | 0.474 | 0.417 | 0.529 | 0.393 | 0.47 | 0.415 | 0.519 | 0.401 | 0.437 | 0.392 | 0.487 |
| 2.08 | 0.698 | 11.7 | HNQDGYSYLSR [LDLR_Y845_P848L] | 0.793 | 0.522 | 0.719 | 0.658 | 0.551 | 0.889 | 0.478 | 0.554 | 0.679 | 0.527 | 0.879 | 0.624 | 0.681 |
| 0.902 | 0.85 | 0.57 | NDEDIYKGLPD [VAV3_Y141] | 0.878 | 0.534 | 0.444 | 0.794 | 0.802 | 0.674 | 1.23 | 0.837 | 0.947 | 0.727 | 0.584 | 0.879 | 1.21 |
| 0.967 | 0.882 | 20.6 | EVRTQYEEIAQ [KRT76_Y361_A359T] | 0.576 | 0.588 | 0.395 | 0.726 | 0.899 | 0.504 | 1.08 | 0.376 | 0.919 | 0.679 | 0.49 | 0.455 | 1.04 |
| 0.687 | 0.692 | 0.419 | ISDNACQFMLT [MYH7_Y162_Y162C_YF] | 0.606 | 0.51 | 0.448 | 0.877 | 0.696 | 0.615 | 0.946 | 0.448 | 1.04 | 0.712 | 0.588 | 0.597 | 1.21 |
| 0.87 | 0.814 | 0.456 | FHKALYTVRSY [PDE6C_Y266] | 0.801 | 0.471 | 0.414 | 0.576 | 0.775 | 0.524 | 0.814 | 0.582 | 0.704 | 0.534 | 0.465 | 0.515 | 0.919 |
| 0.501 | 0.72 | 0.918 | AGQEGYDRLRP [RAC1_Y64_D63G] | 0.527 | 0.347 | 0.36 | 0.642 | 0.654 | 0.596 | 0.547 | 0.378 | 0.484 | 0.43 | 0.562 | 0.34 | 0.712 |
| 0.577 | 0.901 | 0.552 | YAREGYSALPQ [SARS2_Y52] | 0.58 | 0.439 | 0.442 | 0.52 | 0.541 | 0.459 | 0.678 | 0.373 | 0.904 | 0.499 | 0.522 | 0.396 | 0.789 |
